These results are taken from US20250051455A1 (Hoffmann-La Roche, published 2025).

Broadly, the Kd is the equilibrium constant for the complex coming apart. As usually defined, the koff is a measure of how fast the partners let go of each other. One may read the kon as a measure of how fast the partners come together.

Where a chain is given by its changes, count along the chain named.

B1: HLA-G-0039 (antibody, V domains shown)
VH: EVQLLESGGGLVQPGGSLRLSCAASGFTFSSYAMNWVRQAPGKGLEWVSVISGSGVSTYYADSVKGRFTISRDNSRNTLSLQMNSLRAEDTAVYYCAKDGSYNYGYGDYFDYWGQGTLVTVSS
VL: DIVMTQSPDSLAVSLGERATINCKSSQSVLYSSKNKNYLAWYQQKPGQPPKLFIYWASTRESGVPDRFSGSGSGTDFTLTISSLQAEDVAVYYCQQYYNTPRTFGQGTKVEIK
notes: Human antibody from humanized OmniRat (OMT) rats
B2: HLA-G-0041 (antibody, V domains shown)
VH: B1 VH with S31T, A33G, N35S, S54G, R76K, S80Y, S85R
VL: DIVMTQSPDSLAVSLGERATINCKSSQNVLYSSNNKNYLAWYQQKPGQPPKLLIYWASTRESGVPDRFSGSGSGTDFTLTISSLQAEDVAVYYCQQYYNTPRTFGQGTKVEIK
notes: as for B1
B3: HLA-G-0031 (antibody, V domains shown)
VH: QVKLMQSGAALVKPGTSVKMSCNASGYTFTDYWVSWVKQSHGKRLEWVGEISPNSGASNFDENFKDKATLTVDKSTSTAYMELSRLTSEDSAIYYCTRSSHGSFRWFAYWGQGTLVTVSS
VL: AIVLNQSPSSIVASQGEKVTITCRASSSVSSNHLHWYQQKPGAFPKFVIYSTSQRASGIPSRFSGSGSGTSYSFTISRVEAEDVATYYCQQGSSNPYTFGAGTKLELK
notes: Rat monoclonal antibody obtained from CD rats
B4: HLA-G-0090 (antibody, V domains shown)
VH: QVQLQQSGPGLLKPSQTLSLTCAISGDSVSSNRAAWNWIRQSPSRGLEWLGRTYYRSKWYNDYAVSVQGRITLIPDTSKNQFSLRLNSVTPEDTAVYYCASVRAVAPFDYWGQGVLVTVSS
VL: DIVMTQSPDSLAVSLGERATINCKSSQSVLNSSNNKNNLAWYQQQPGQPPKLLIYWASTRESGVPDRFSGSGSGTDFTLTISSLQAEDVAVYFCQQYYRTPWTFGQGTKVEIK
notes: as for B1

One test has as its target T1, recombinant soluble human HLA-G β2M MHC class I complex, monomer (human).
T1 construct: His tagged; biotinylated where coated on streptavidin plates, non-biotinylated in SPR; also called HLA-G-0003; wt HLA-G (monomer)
The test can be described thus: SPR Biacore T200, antibody captured via anti-Fc, HLA-G monomer as analyte, 25 C. As to the method: Binding kinetics of anti-HLA-G antibodies to human HLA-G, human HLA-G degrafted and human HLA-A2 were investigated by surface plasmon resonance using a BIACORE T200 instrument (GE Healthcare). All experiments were performed at 25° C. using PBS Buffer (pH 7.4+0.05% Tween20) as running buffer and PBS Buffer (+0.1% BSA) as dilution buffer. Anti-human Fc (JIR009-005-098, Jackson) or anti-rat Fc (JIR112-005-071, Jackson) or anti-Mouse Fc (JIR115-005-071, Jackson) antibodies were immobilized on a Series S CM5 Sensor Chip (GE Healthcare) at pH 5.0 by using an amine coupling kit supplied by GE Healthcare. Anti-HLA-G antibodies were captured on the surface leading to a capturing response of 50-200 RU. HLA-G molecules were injected for 180 s at 30 μl/min with concentrations from 2.5 up to 800 nM (2×1:2 and 4×1:3 dilution series) onto the surface (association phase). The dissociation phase was monitored for 300-600 sec by washing with running buffer. The surface was regenerated by injecting H3PO4 (0,85%) for 60+30 seconds for anti-human Fc capturing antibodies, glycine pH1,5 for 60 seconds and glycine pH2,0 for 60 seconds for anti-rat Fc capturing antibodies, H3PO4 (0,85%) for 80+60 seconds for anti-mouse Fc capturing antibodies. Bulk refractive index differences were corrected by subtracting the response obtained from a mock surface. Blank injections were subtracted (double referencing). The derived curves were fitted to a 1:1 Langmuir binding model using the BIAevaluation software.
The above table summarizes the antibody affinities and t½ values against wt and degrafted HLA-G as assessed by Surface plasmon resonance (Biacore) analysis. Binding kinetics of anti-HLA-G antibodies to human HLA-G and human HLA-G degrafted were investigated by surface plasmon resonance using a BIACORE T200 instrument (GE Healthcare). All experiments were performed at 25° C. using PBS Buffer (pH 7.4+0.05% Tween20) as running buffer and PBS Buffer (+0.1% BSA) as dilution buffer. Anti-human Fc (JIR009-005-098, Jackson) or anti-rat Fc (JIR112-005-071, Jackson) or anti-Mouse Fc (JIR115-005-071, Jackson) antibodies were immobilized on a Series S CM5 Sensor Chip (GE Healthcare) at pH 5.0 by using an amine coupling kit supplied by GE Healthcare.
(In general: In SPR one partner is held on a chip, and binding of the other changes the refractive index at the surface.)
In the case of B1, the Kd is 0.95 nM, the koff amounted to 0.00044 s⁻¹, the kon came out at 460000 M⁻¹ s⁻¹ and the “t 1/2” value was found to be 27 min.

In the case of B2, the Kd is 1.3 nM, the koff was 0.00049 s⁻¹, the kon came to 380000 M⁻¹ s⁻¹ and the “t 1/2” value came out at 23 min.

B3: the equilibrium dissociation constant (Kd) stood at 75 nM, the koff was determined as 0.0037 s⁻¹, the on-rate constant (kon) is 49000 M⁻¹ s⁻¹ and the “t 1/2” value amounted to 3 min.

B4: the Kd was determined as 3.6 nM, the koff came out at 0.00085 s⁻¹, the kon was 230000 M⁻¹ s⁻¹ and the “t 1/2” value was found to be 14 min.

The target in the next test is T1, recombinant soluble human HLA-G β2M MHC …. The test can be described thus: blocking ELISA on biotinylated wt HLA-G; competitor c-myc ILT-2. As to the method:
Streptavidin coated plates (Nunc, MicroCoat #11974998001) were coated with 25 µl/well biotinylated human wt HLA-G at a concentration of 500-1000 ng/ml and incubated at 4° C. overnight. After washing (3×90 μl/well with PBST-buffer) 25 μl anti-HLA-G samples were added in decreasing concentrations starting at 10 or 3 μg/ml, then diluted in 1:3 or 1:2 steps and incubated 1 h at RT. After washing (3×90 μl/well with PBST-buffer) 25 μl/well c-myc-tagged recombinant ILT-2 receptor was added at a concentration of 200 ng/ml and incubated for 1 h at room temperature. […] After washing (3×90 μl/well with PBST-buffer), 25 μl/well TMB substrate (Roche, 11835033001) was added and incubated until OD 2-3. Measurement took place on a Tecan Safire 2 instrument at 370/492 nm
The table above summarizes the extent of ILT-2 and ILT-4 blocking of different antibodies bound to HLA-G at a concentration of 3 μg/ml, relative to an HLA-G:receptor interaction that is not blocked. HLA-G-0090 was tested in a separate experiment for ILT2 blockade, ILT4 blocking was not assessed
(In general: An ELISA detects its analyte on a solid surface through an enzyme-linked reagent.)
As for B1, the “% inh. ILT2 (3 µg/ml antibody)” value was found to be 14%.

Take B2: the “% inh. ILT2 (3 µg/ml antibody)” value is 17.4%.

For B3, the “% inh. ILT2 (3 µg/ml antibody)” value was 72.8%.

The target in a further test is T2, human HLA-G expressed on cells (JEG3 natural; SKOV3 HLA-G+ and PA-TU-8902 HLA-G+ transfectants) (human).
T2 construct: On cells HLA-G stands in an MHC class I complex with beta-2 microglobulin and peptide; these are not specified; also called cell surface HLA-G; HLAG on JEG-3 cells
Briefly: flow cytometry, JEG3 cells pre-incubated with antibody (40 µg/ml final); competitor ILT2-Fc chimera. As to the method: For analysis, JEG3 cells (ATCC HTB36) were stained with ILT2-Fc fusion proteins (control=no inhibition) with or without pre-incubation with different anti-HLA-G antibodies. For the pre-incubation with anti-HLA-G antibodies 25 μl/well of the cell suspension was transferred into a polypropylene 96-Well V-bottom plate and prechilled in the at 4° C. for 10 min. Anti HLA-G antibodies or reference antibodies (G233, MEM-G/9 or 87G) were diluted in staining buffer to a 2-fold concentration of 80 μg/ml and 25 μl/well of the antibody solution was added to the prepared cells and incubated for 1 h at 5° C. Cells were washed twice with 200 μl/well staining buffer with centrifugation at 300 g for 3 min and finally resuspended in 25 μl/well staining buffer.
The detection of human ILT2-Fc Chimera protein (RD #2017-T2-050) to a) JEG3 cells pre-incubated anti HLA-G mAb or b) untreated JEG3 cells as reference was determined as follows: Briefly, the ILT2-Fc or control human IgG (Jackson-Immuno-Research #009-000-003) were diluted in staining buffer to a 2-fold concentration of 20 μg/ml (ILT2) and 25 μl/well of the ILT2-Fc protein solution was added to the prepared cells and incubated for 2 h at 5° C. Cells were again washed twice with 200 μl/well staining buffer the human ILT2-Fcprotein was detected with fluorescent labeled anti human IgG Fc-gamma specific antibody (F(ab′)₂ Fragment Goat Anti-Human IgG, Fcγ fragment specific-FITC, Jackson-Immuno-Research #109-096-008) at a dilution of 10 μg/ml in staining buffer. Cell pellets were resuspended in 50 μl/well detection antibody. After a 1-hour incubation at 5° C. cells were washed twice with staining buffer, resuspended in 70 μl and measured at a FACS Canto II to determine ILT2 binding to JEG 3 cells.
On the technique in general: A flow cytometer gives signals particle by particle.
As for B1, the “Inhibition of ILT2 binding to Jeg3 cells” value is -72.9%.

For the molecule B2, the “Inhibition of ILT2 binding to Jeg3 cells” value is -76.7%.

Turning to B3, the “Inhibition of ILT2 binding to Jeg3 cells” value was determined as 95.1%.

For the molecule B4, the “Inhibition of ILT2 binding to Jeg3 cells” value was found to be 91.8%.
